Sequences and labels used below:
B1: FIXa-K247N/N249S/R338E/T343R/R403E/E410N (protein)
chain 1: not shown
chain 2: not shown
B2: FIXa-K247N/N249S/R318Y/R338E/T343R/R403E (protein)
chain 1: not shown
chain 2: not shown
B3: FIXa-R318Y/R338E/T343R/R403E/E410S (protein)
chain 1: not shown
chain 2: not shown
B4: FIXa-Y155F/K247N/N249S/R338E/T343R (protein)
chain 1: not shown
chain 2: not shown
B5: FIXa-Y155F/K247N/N249S/R318Y/R338E/T343R/R403E (protein)
chain 1: not shown
chain 2: not shown
B6: FIXa-Y155F/K247N/N249S/R318Y/E410N (protein)
chain 1: not shown
chain 2: not shown
B7: FIXa-Y155F/K247N/N249S/R318Y/R403E (protein)
chain 1: not shown
chain 2: not shown
B8: FIXa-Y155F/K247N/N249S/R318Y/T343R (protein)
chain 1: not shown
chain 2: not shown
B9: FIXa-Y155F/K247N/N249S/R338E/T343R/R403E/E410N (protein)
chain 1: not shown
chain 2: not shown
B10: FIXa-Y155F/K247N/N249S/R318Y/R338E/T343R/E410N (protein)
chain 1: not shown
chain 2: not shown
B11: FIXa-Y155F/K247N/N249S/R318Y/R338E (protein)
chain 1: not shown
chain 2: not shown
B12: FIXa-Y155F/K247N/N249S/R338E/R403E (protein)
chain 1: not shown
chain 2: not shown
B13: FIXa-Y155F/K247N/N249S/T343R/R403E (protein)
chain 1: not shown
chain 2: not shown

Chain of Factor X, P00742 (P00742 whole entry, looked up): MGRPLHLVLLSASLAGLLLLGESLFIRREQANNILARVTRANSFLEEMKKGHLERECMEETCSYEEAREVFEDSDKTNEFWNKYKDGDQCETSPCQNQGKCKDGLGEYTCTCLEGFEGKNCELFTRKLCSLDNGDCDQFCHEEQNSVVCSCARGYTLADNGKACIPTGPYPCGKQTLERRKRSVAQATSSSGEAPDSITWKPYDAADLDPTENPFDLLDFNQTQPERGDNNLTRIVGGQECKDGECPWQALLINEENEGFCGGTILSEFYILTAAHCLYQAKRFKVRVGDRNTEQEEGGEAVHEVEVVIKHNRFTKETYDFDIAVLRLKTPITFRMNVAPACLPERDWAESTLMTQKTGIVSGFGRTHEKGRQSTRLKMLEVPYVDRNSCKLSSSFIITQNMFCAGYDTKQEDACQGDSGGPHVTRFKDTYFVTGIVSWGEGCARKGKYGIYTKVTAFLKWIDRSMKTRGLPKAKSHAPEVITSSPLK

This series addresses Factor X, P00742.
As to B1, the “% of WT kcat/KM” value is listed as 930%, the KM worked out at 0.0251 µM and the kcat/KM was 4.3e+08 M⁻¹ s⁻¹.

For the protein B2, the KM turned out to be 0.0284 µM and the kcat/KM was 4.1e+08 M⁻¹ s⁻¹.

As to B3, the KM came out at 0.019 µM and the kcat/KM was found to be 4.4e+08 M⁻¹ s⁻¹.

For the protein B4, the Michaelis constant (KM) was 0.0153 µM.

For the protein B5, the KM turned out to be 0.0365 µM and the kcat/KM was 2.9e+08 M⁻¹ s⁻¹.

For the protein B6, the “% of WT kcat/KM” value is on record as 155%, the KM was 0.0488 µM and the kcat/KM was determined as 7.2e+07 M⁻¹ s⁻¹.

Take B7: the “% of WT kcat/KM” value is 34%, the KM amounted to 0.109 µM and the kcat/KM came out at 1.6e+07 M⁻¹ s⁻¹.

Regarding B8, the “% of WT kcat/KM” value was found to be 549%, the KM came out at 0.0421 µM and the kcat/KM is 2.5e+08 M⁻¹ s⁻¹.

With B9, the KM worked out at 0.0264 µM and the kcat/KM turned out to be 3.7e+08 M⁻¹ s⁻¹.

Consider B10, for which the Michaelis constant (KM) was found to be 0.0177 µM.

Turning to B11, the “% of WT kcat/KM” value is 632%, the KM was found to be 0.0263 µM and the kcat/KM turned out to be 2.9e+08 M⁻¹ s⁻¹.

As for B12, the KM amounted to 0.0409 µM.

Regarding B13, the KM was 0.0596 µM and the kcat/KM worked out at 8.5e+07 M⁻¹ s⁻¹.

(Values after patent US11491212.)
